According to article PMC9938351:

Legend:
[1] = target: SARS-CoV-2 ubiquitin-like domain 1 (Ubl1) of Nsp3 (residues 1–111) (SARS-CoV-2); assay: dynamic light scattering
[2] = target: SARS-CoV-2 ubiquitin-like domain 1 (Ubl1) of Nsp3 (residues 1–111) (SARS-CoV-2); assay: cross-linking
[3] = target: SARS-CoV-2 nucleocapsid (N) protein (residues 1–419) (SARS-CoV-2) (UniProt P0DTC9); assay: ITC

Substance	stoichiometry N [1] [NTD per Ubl1]	stoichiometry N [2]	Kd [3] [nM]	dH [3] [kcal/mol]	stoichiometry N [3]
SARS-CoV-2 N protein N-terminal domain (NTD, residues 47–174) (from UniProt P0DTC9 47-174) (domain or fragment)	0.5	–	–	–	–
SARS-CoV-2 ubiquitin-like domain 1 (Ubl1) of Nsp3 (residues 1–111) (domain or fragment)	–	2	800	-14.9	1.19
